{"source": "paper PMC9334453", "about": "“A native IgE in complex with profilin provides insights into allergen recognition and cross-reactivity” (Communications Biology, 2022)", "binders": {"B1": {"name": "Fab/IgE 2F5 (papain Fab fragment of the murine IgE 2F5) (Fab, V domains shown)", "VH": "EVQLVESGGGLVQPKGSLKLSCAASGFTFNTYAMNWVRQAPGKGLEWVARIRTKTNNYVTYYADSVKDRFTISRDDSQSMLYLQMNNLKTEDTAMYYCVRHVGDYWGQGTSVTVSS", "VL": "DIQMTQSPASLSASVGETVTITCRASGNIHNYLAWFQQKQGKSPQLLVYNAKTLADGVPSRFSGSGSGTQYSLKINSLQPEDFGSYYCQHFWSTPYTFGGGTKLEIK", "notes": "VH and Cε1; papain cleavage site said to be R209/P210 between Cε1 and Cε2; light chain of IgE 2F5; also called the Fab; source: papain digest of IgE 2F5 (36 h, 37 °C), purified (Superdex 75 SEC, Mono Q)"}, "B2": {"name": "murine monoclonal IgE antibody 2F5 (anti-profilin Hev b 8) (antibody, V domains shown)", "VH": "B1 VH", "VL": "B1 VL", "notes": "rest of the murine IgE (epsilon) heavy chain constant region after the papain site R209/P210 (Cε2 onward); as the light chain of m2; Native, non-recombinant IgE with naturally paired chains; also called IgE 2F5; mAb 2F5; copies: 2 + 2"}}, "conditions_in_all_cases": "both partners purified", "key": {"biotinylated rHev b 8 [1]": {"target": "T1, biotinylated rHev b 8 (Hevea brasiliensis, biotin (1:5 profilin:biotin ratio; sites not stated))", "T1 construct": "profilin Hev b 8, Hevea brasiliensis, named 'rHev b 8' in the BLI methods; The BLI methods say only 'Profilin rHev b 8'; also called biotinylated profilin; biotinylated allergen; source: E. coli Rosetta (DE3), purified (HisTrap), then biotinylated at a 1:5 profilin:biotin ratio and dialyzed", "T1 chain": "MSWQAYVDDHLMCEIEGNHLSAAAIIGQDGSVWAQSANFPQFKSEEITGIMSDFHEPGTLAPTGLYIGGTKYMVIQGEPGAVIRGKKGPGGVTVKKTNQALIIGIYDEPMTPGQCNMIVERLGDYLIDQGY", "experiment": "BLI; biotinylated rHev b 8 (125 nM) on streptavidin biosensors; Fab/IgE 2F5 at 62.5-2000 nM; 25 °C; PBS pH 7.4, 0.05% Tween 20, 1 M NaCl; 1:1 global fit considering nonspecific binding (Association-Dissociation model, GraphPad Prism 8)"}, "biotinylated rHev b 8 [2]": {"target": "T1, biotinylated rHev b 8", "experiment": "BLI; same BLI data (biotinylated rHev b 8 on streptavidin, 25 °C, PBS pH 7.4, 0.05% Tween 20, 1 M NaCl); kon from the association step and koff from the dissociation step fitted separately in Prism 8, KD = koff/kon"}, "[3]": {"target": "T2, DDDK-rHev b 8 (rHev b 8 with the last four residues of the enterokinase cleavage site at the N-terminus) (Hevea brasiliensis)", "T2 construct": "last four residues of the enterokinase cleavage site left at the N-terminus (D-3, D-2, D-1, K-0); D-2 makes a hydrogen bond with Y49 of the Fab light chain; profilin Hev b 8, Hevea brasiliensis, from M1; The whole construct was expected at 18,283 Da but measured 14,625 Da (14,629 Da in another paragraph): only DDDK is left of the N-terminal extension; also called DDDK-Hev b 8; rHev b 8 whole …", "T2 chain": "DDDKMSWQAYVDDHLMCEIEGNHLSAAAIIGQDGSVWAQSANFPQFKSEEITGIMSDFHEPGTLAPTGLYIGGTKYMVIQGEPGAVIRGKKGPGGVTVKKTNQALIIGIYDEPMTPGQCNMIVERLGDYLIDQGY", "experiment": "MALDI-TOF mass spectrometry; sinapinic acid matrix; samples of Fab/IgE 2F5 and of its complex with rHev b 8 (whole construct); the peaks of the complex and of the dimeric Fab were not calibrated"}, "[4]": {"target": "T3, recombinant maize profilin (rZea m 12) (Zea mays)", "T3 construct": "profilin Zea m 12, maize; has D14, G98, V118, E128; The mutagenesis primers encode KKT(N)MSL and YLI(D)QGF around positions 98 and 128", "T3 chain": "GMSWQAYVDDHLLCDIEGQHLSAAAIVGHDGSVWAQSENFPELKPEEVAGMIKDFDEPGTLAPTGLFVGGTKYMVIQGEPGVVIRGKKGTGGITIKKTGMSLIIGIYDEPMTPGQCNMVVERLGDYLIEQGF", "experiment": "ELISA; plates coated with 100 μL of 0.7 μM profilin in PBS pH 7.4, blocked with 1% BSA; IgE 2F5 in PBS, 1 h 37 °C; detected with HRP anti-mouse IgE Fcε, ABTS, 405 nm; n = 4"}, "[5]": {"target": "T2, DDDK-rHev b 8 (rHev b 8 with the last …)", "experiment": "ELISA; plates coated with 100 μL of 0.7 μM profilin in PBS pH 7.4, blocked with 1% BSA; IgE 2F5 in PBS, 1 h 37 °C; detected with HRP anti-mouse IgE Fcε, ABTS, 405 nm; n = 4"}}, "data": [{"binder": "B1", "values": [{"measurement": "Kd", "setting": "biotinylated rHev b 8 [1]", "result": "370 ± 6.8", "unit": "nM"}, {"measurement": "Kd", "setting": "biotinylated rHev b 8 [2]", "result": "369 ± 3.8", "unit": "nM"}, {"measurement": "binding result", "setting": "[3]", "result": "binds"}]}, {"binder": "B2", "values": [{"measurement": "binding result", "setting": "[4]", "result": "no binding"}, {"measurement": "binding result", "setting": "[5]", "result": "binds"}]}]}
